The nature of the data set: label from the status in PepcDB records.
Turning to “MPYLYLLLAIVSEVIGSAFLKSSDGFSKLYPTITTIISYLISFYFLSKTMQHLPLNIAYASWSGLGLVLTTIVSVLIFKEQINLISIISIILIIFGVVLLNTFGSSH”, the protein production result is “failed”.

For the sequence “MPYMTTDAKEVSGKSFDYIVVGGGTAGCSLAATLSEKYSVLVIERGGSPFGDPLVEERKYFGYSLLNTDEYSSVAQSFTSVDGIENYRGRVLGGSSAINGGFYSRASDEFVKKAGWDKGLVQESYKWVESKVVFMPELTQWQSVVQFGFLEAGFYPYNGYSLEHTQGTKIGGSIYDQCGKRHTSADLLGFGKPNCITVLLNTTVKSIIFDSSNKTRAVGVRFMESDGNSSKSYKVHVEQHRGEVILAAGALGSPQILLLSGIGPENHLKDFDIPVIVNLKEVGRKMSDNPAISLLVDRFSQNRTLEPPQVAAIAEGYKFILESEVLPTDITTTRISIAAKIAFPKSKGRLKLNSTNPRENPSVKFNYLENKADLDACLEMVLHLQHVARSETVTFFLGTQAHDKLVAGDEELKSFCIKNVRTYYHYHGGCVVGSVVDEEYKVNGVKRLRVVDGSTFEESPGTNPMATVLMLGRYQGIKILKEREEQEDTFLSPQGSPQPQP”, the protein production entry is “failed”.

As for “MPYVPTPKPVVDRMLELADVDETDVLYDLGSGDGRIVIRAARTHGARGVGIEIDPDLVKKARKNAKEAGVADLVEFRQGDLFEADISEATVVTLYLLPSVNQKLRPILFEQLSPGTPVVSHDFDMGRWAPDRTVDLEGDTVYRWTIPEEIPEDLDELEHHHHHH”, the protein production entry is “not failed”.

For the sequence “MQAGNPMSLQSMLPYVTPPVVGAVIGYVTNDIAIRMLFRPLKPWRVFGIRVPLTPGVIPAGRHEFAATIGRMVGTHLVTGTDVARALGKDSFRRELQEAVSGKLDTLLDRDLGTVGSLLPEGFESWLRDGVDLAARRAGETVAGYLQGEDFRRELSLFLRDLEERVLPRELERILAGETGDAVRAGAGRALAALLQSRGVSRAVAGLVDDKLDELLASERPLRELLPPELVELATAQAREAMPVILGRVAEFVRSPEIRDTFEAKLREGVQQYLANLKGTLGFMAGFISVEKLNSYFPGLVGSVTDEVVRWLGEETTHRRVAAMVDQGLGRILDRPLAATVEQLPYRRVALLRRSIRRGALGVVRRPETAGFLLALAERELVRLAADPSRPILERLAPEDDPSRLREGLVGWLTDRLRDPGIRATLERIVAGRVEEWLFNRPLGRLSARISAEVRRDLDQLIYRQVADLLEREAPPLIDALDVARMVEEKINTLDILAVEGLLLSIMQKHFLYINLFGALLGFVMGSFNVLLMGLGR”, the protein production entry was “failed”.

With “MQAPRLRVGIFDDGSSTVNMAEKLDSVGHYVTVLHAPEDIRDFELVVIDAHGVEGYVEKLSAFARRGQMFLHTSLTHGITVMDPLETSGGIVMSAHPIGQDRWVASALDELGETIVGLLVGELGGSIVEIADDKRAQLAAALTYAGFLSTLQRDASYFLDEFLGDPDVTSDIVMDSAQQFQALPSLDEVIAQYDSINNPGRQRLFRDLARRQAEISRAQDIELWAIQKEDR”, the protein production entry was “not failed”.

Take “MQASASNSSSYTVNASVLHVRAGSSTSHDIISRVYNGQSLNVIGEENGWYKININGKTGFVSGEFVSKNGTSNSNVSTTGGKNKVTADVLRVRTAPNTSSSVSGRVYEGQTLNVIGQENGWVKINHNGQVGYVSGEFVSGVSSNAGSSNSNTNNNNQESVKPASGNYTVNVSSLRVRTGPSTSHTTVGSVTKGQVVQVVGEVQDWFKINYAGQTAYVSKDYVTKGGSSDNVTQGNNQNNNQNNNVTVQTGGTYVVNATSLRVRTGPATYHSVIGGVLNGTTLNVIGSEGSWFKVNYQGKTGYVSSEFMKFVKGGTTTPEQPKQPEQPNQGAIGDYYINASALNVRSGEGTNYRIIGALPQGQKVQVISENSGWSKINYNGQTGYIGTRYLSKTPVGGAVDNNKPNNNQNNNQNNNNNTGNNSGNSSSILAYAKGMQGVPYVWGGTSANGVDCSGYIYHVFKKFGHNISRQSVAGYWGSLPQTSNPQPGDLIYFQNTYKSGPSHMGIYLGGGSFIQAGDKGVAIASLSNSYWKSHFLGYTKAPLEHHHHHH”: the protein production entry is “not failed”.

Regarding “MQAVLNFPDLSPELFSISLFGMEFALRWYALAYIAGIVIAWRLAVLATRRAALWPANTPPMAPARIEDLLTWIILGVILGGRLGFVLFYQPAYYLANPTEILMVWQGGMAFHGGLLGVVIAAWLYSLRHNIPKLSLADLITHTVAPGLLLGRLANFINAELWGRPSDLPWAVIFPGPAAQACPGVVGLCARHPSQLYEAALEGLLLGTLLLWLVWRRGALKRPGLITGVFLAGYGLSRFVVEFFRQPDAQFVTPGNPLGLAWQVGEYGLTMGQLLSLPMIALGLWFVLRARAVPA”, the protein production result is recorded as “failed”.

For the sequence “MQDERWNHPLYTTTAINDEELEGHAYIPGGLKVQTSSPMNDHPGTNPEQLLGLSLSTCLEATLEAVEKEHGLPHTGAVRVKVAFIGARAEYQFLVHAQVMVKGVDFDTAKAFTNEIENRCPVSKLLKNSGNYTIETVTDFKD”, the protein production entry is on record as “not failed”.

On to “MQDIFEEIIDYLKGIWLKRRYIIIATWLICPIGWYFVAAMPNVYQSEARVYVDTQSLLRPLLKGLTVETNPDTQIRLMVKTLLSRPNLERISRMTDLDVQASTPAQYEAIIKNLKDNIKISSARRENIYTLSIEDEDPEMAKNIVRSALTVFIENTLGETRSDSDSAQKFLNTQIKDYENRLSNSEARLTSFKQKYSGILPDQSGGYYAKLNGNREKLKAIELDLLENKTRLDSAKKQLAQSVVADTGSDNKIKSENSIQTTYDDRINELEVLLDNLKLRYTEKHPDVIETSRNLEHLNKLRSSEIEKYLAQNNENTGSLKRLSANPVIQEVQIHVNQLENLIASLNVRADNYRQRIIELENRVHTLPEIEAELIALNRGYGITKEKYEELLSRKETAQLAQQADETTDKIQFRVIDPPRKATKPSGPKRFLLFGVVTLIGFAVGIGLSLLMSQLNPVATSTAQLSKITGVPIFGVISANENLGLQQWHKKKTFIFIGSNVLLLCLLVLFVSYFLFPDTIQAPLKRIF”, for which the protein production result was “failed”.

For “MQDILFDFISTYISLTEDEKNALLSLDLFRSVPKGTILLKEGQKSQESYFVLKGCIRIYYIIDGEEKTTAFYTEMDALTPPCVIHNAPSEYFISCIEDSILTVSNLEMEAEINSKFPKFELMCRMLSEELLAKQQIDFDAFKTSSPEQRYLNVLQNRPDLIQRVPQHQLASFLGIKPQSLSRLRARIVDKKS”, the protein production entry is listed as “not failed”.

Regarding “MQDLTSAAAYYHQSMMMTTAKQNQPELPEQEQLKCPRCDSPNTKFCYYNNYNLSQPRHFCKNCRRYWTKGGALRNIPVGGGTRKSNKRSGSSPSSNLKNQTVAEKPDHHGSGSEEKEERVSGQEMNPTRMLYGLPVGDPNGASFSSLLASNMQMGGLVYESGSRWLPGMDLGLGSVRRSDDTWTDLAMNRMEKN”, the protein production result was “failed”.

“MQDSRPHPHDWNVSTDEAKRIQRRLASEVTERALPDGGETVAGIDVSVRDDTAQAAVSVLRLPELDVVDEATHRCEVPFPYVPGLLSFREMPAVLPALERLHSTPDVFVTDSHGAAHPRRFGLACHLGVLLDAPAIGVAKSILVGAPQGELGPEKGSRVPLVDDGETVGTVLRTRTDVNPVYVSVGHRCTLDGAADLMLDCSPRYKIPEPTRQAHKLSRAEG”: the protein production entry is reported as “failed”.

“MQDTPQRGQRSKVRWLVAGLMWAAIAINYIDRTVLSAAAPHIQKEFHLSAVEMGVVMSAFFWSYALLQLPAGILADRFGQKKVLGFAVLWWSLATAVTGLATGFKSLVGLRVALGVGEAGAYPSNAGITSRWFPKQERATVAAIFDSGSKLGSAIALPLIAWLLVTFDWKITFTVAGSLGIVWCVVWALVFRDSPAEHEGVNAAELAHIQKGLPPARGADAPAMPWTKLLTHRNVWAMCIGFFMINYNSYFFITWLPTYLVKERGMGLMEMGFMASLPLFVSMFVEVFAGWASDRVYASGRLSLTATRKLFLVIGLVMASSIGLAAFAQSAVVAVILLCIAKSGTTVAASQVWALPADVAPGNTVSMVAGLQNSVSNMGGVVGPIVTGAIVGATGSFIPALVFSAALIGLAILNYLFLLGKVEPIAFEPNPATLNPNSHGRSNADARA”: the protein production entry is on record as “failed”.

Values taken from a protein production outcome set (Wang et al. 2014).
